Test [1] concerns the target SARS-CoV-2 Wuhan-1 full-length Spike protein (SARS-CoV-2) (UniProt P0DTC2). The test is described as follows: cell-based or functional assay.
The target of test [2] is SARS-CoV-1 spike (pseudovirus) (SARS-CoV-1) (UniProt P59594). The test is described as follows: cell-based or functional assay.
For test [3], the target named is SARS-CoV-2 Spike (S) trimer (SARS-CoV-2) (UniProt P0DTC2). The test is described as follows: ELISA, S trimer coated, 1:50 dilution. In general terms: An ELISA detects its analyte on a solid surface through an enzyme-linked reagent.

Consider “Anti-Nucleocapsid (Neg Control) (antibody)”, for which the Pseudovirus Neutralization in test [1] and in test [2] was more than 50 µg/mL throughout.
In test [3], CA-1 (AB-009265) (antibody) had an Optical Density (OD; 450 nm) of 2.74 OD450.
Same read-out and setting: as for CB-6 (AB-009264) (antibody), the figure is 2.81 OD450.

The values are drawn from patent US20240025971A1.
